Laboratory results reported in patent publication US20220125837A1, “METHODS FOR CONTROLLED ELIMINATION OF THERAPEUTIC CELLS” (Bellicum Pharmaceuticals, Inc., priority 2014, published 2022).
Changes are numbered by the printed parent chain. Names may count otherwise. “Also recorded” adds a separate entry of the source. Where a SMILES comes first, the peptide text is derived from it. The star is where a group is joined. Cbz = O=C(OCc1ccccc1)*; CH2F = FC*

Experiments:
[1] = tested on: 293 cells; test: SRα-SEAP assay in 293 cells with FRBl2-tagged CAR and iCaspase-9: rapamycin or rimiducid; assay type: cell-based, human; details: FRB-tagged CAR plus FKBP12-tagged Caspase-9; overnight
Experimental: Two tandem FRB, domains were fused to either either a 1st generation Her2-CAR or to a 1st generation CD19-CAR co-expressing inducibleiCaspase-9. 293 cells were transiently transfected with a constitutive reporter plasmid, SRα-SEAP, along with normalized levels of expression plasmids encoding Her2-CAR-FRBl2, iCaspase-9, Her2-CAR-FRBl2+iCasp9, iC9-CAR(19).FRBl2 (coexpressing both CD19-CAR-FRBl2 and iCaspase9), or control vector. […] After overnight incubation with drugs, SEAP activity was determined. […] This dose-dependent decrease required the presence of both the FRB-tagged CAR and the FKBP12-tagged Caspase-9. […] Moreover, on- or off-target-mediated CAR clustering should increase the sensitivity of killing primarily at the site of scFv engagement.
24 hours following transfection (4.1), 293T cells are split to 96-well plates and incubated with dilutions of dimerizing drugs. Briefly, 100 μL media is added to each well of a 96-well flat-bottom plate. Drugs are diluted in tubes to a concentration 4× the top concentration in the gradient to be place on the plate. […]
24 hours after drug stimulation, 96-well plates are wrapped to prevent evaporation and incubated at 65° C. for 2 hours to inactivate endogenous and serum phosphatases while the heat-stable SeAP reporter remains (3, 12, 14). […] Phosphatase activity is measured by fluorescence with excitation at 355 nm and emission at 460 nm. […]

[2] = tested on: F-Casp9M.I.GFPhigh-transduced T cells; test: Annexin V/7-AAD staining of iCasp9M GFPhigh T cells after CID; assay type: cell-based, human; details: 100 μM for 1 hour prior to adding CID
Experimental: CID (AP20187; ARIAD Pharmaceuticals) at indicated concentrations was added to transfected 293T cells or transduced CTLs. Adherent and nonadherent cells were harvested and washed with annexin binding buffer (BD Pharmingen, San Jose, Calif.). Cells were stained with annexin-V and 7-amino-actinomycin D (7-AAD) for 15 minutes according to the manufacturer's instructions (BD Pharmingen). Within 1 hour after staining, cells were analyzed by flow cytometry using CellQuest software (Becton Dickinson).
A representative example of 3 separate experiments is shown.
For clinical applications therefore, versions of the expression constructs with selectable markers that allow selection for high copy number, high levels of expression, or both high copy number and high levels of expression may be desirable. […] The dose response remained unchanged for at least 4 weeks after transduction.

[3] = tested on: HEK293T/16 cells; test: Secreted alkaline phosphatase (SEAP) surrogate killing assay of iCasp9 mutants; assay type: cell-based, human; details: SEAP assay without AP1903; relative to wild type Caspase-9
Experimental: Early passage HEK293T/16 cells (ATCC, Manassas, Va.) were maintained in IMDM, GlutaMAX™ (Life Technologies, Carlsbad, Calif.) supplemented with 10% FBS, 100 U/mL penicillin, and 100 U/mL streptomycin until transfection in a humidified, 37° C., 5% CO2/95% air atmosphere. Cells in logarithmic-phase growth were transiently transfected with 800 ng to 2 μg of expression plasmid encoding iCasp9 mutants and 500 ng of an expression plasmid encoding SRα promoter driven SEAP per million cells in 15-mL conical tubes. […] GeneJammer® Transfection Reagent at a ratio of 3 μl per ug of plasmid DNA was used to transiently transfect HEK293T/16 cells in the absence of antibiotics. 100 μl or 2 mL of the transfection mixture was added to each well in 96-well or 6-well plate, respectively.
Briefly, after 65° C. heat denaturation for 45 minutes to reduce background caused by endogenous (and serum-derived) alkaline phosphatases that are sensitive to heat, 5 μl of supernatants was added to 95 μl of PBS and added to 100 μl of substrate buffer, containing 1 μl of 100 mM 4-methylumbelliferyl phosphate (4-MUP; Sigma, St. Louis, Mo.) re-suspended in 2 M diethanolamine. Hydrolysis of 4-MUP by SEAP produces a fluorescent substrate with excitation/emission (355/460 nm), which can be easily measured. […] 1000-ul of the mixture was seeded onto each well of a 96-well plate. […] For the assay, 4-methylumbelliferyl phosphate substrate was hydrolyzed by SEAP to 4-methylumbelliferon, a metabolite that can be excited with 364 nm and detected with an emission filter of 448 nm. Since SEAP is used as a marker for cell viability, reduced SEAP reading corresponds with increased iCaspase-9 activities.

[4] = tested on: PG13 packaging cells; assay type: cell-based

Molecule: CO[C@H]1C[C@@H]2CC[C@@H](C)[C@@](O)(O2)C(=O)C(=O)N2CCCC[C@H]2C(=O)O[C@H]([C@H](C)C[C@@H]2CC[C@@H](O)[C@H](OC)C2)CC(=O)[C@H](C)/C=C(\C)[C@@H](O)[C@@H](OC)C(=O)[C@H](C)C[C@H](C)/C=C/C=C/C=C/1C [Rapamycin]
- maximal decrease of SEAP activity [1]: ~50%

Molecule: COC(=O)C[C@H](NC(=O)[C@H](C)NC(=O)[C@@H](NC(=O)OCc1ccccc1)C(C)C)C(=O)CF [zVAD-fmk] (Cbz-Val-Ala-Asp(OMe)-CH2F)
- effect on CID-induced apoptosis [2]: inhibited

B1: F319A: chimeric modified Caspase-9 polypeptide (protein, UniProt P55211 1-416, looked up, variant F319A)
chain: MDEADRRLLRRCRLRLVEELQVDQLWDALLSRELFRPHMIEDIQRAGSGSRRDQARQLIIDLETRGSQALPLFISCLEDTGQDMLASFLRTNRQAAKLSKPTLENLTPVVLRPEIRKPEVLRPETPRPVDIGSGGFGDVGALESLRGNADLAYILSMEPCGHCLIINNVNFCRESGLRTRTGSNIDCEKLRRRFSSLHFMVEVKGDLTAKKMVLALLELAQQDHGALDCCVVVILSHGCQASHLQFPGAVYGTDGCPVSVEKIVNIFNGTSCPSLGGKPKLFFIQACGGEQKDHGFEVASTSPEDESPGSNPEPDATPAQEGLRTFDQLDAISSLPTPSDIFVSYSTFPGFVSWRDPKSGSWYVETLDDIFEQWAHSEDLQSLLLRVANAVSVKGIYKQMPGCFNFLRKKLFFKTS
modifications: fused to FKBP12 F36V dimerization domain
notes: chimeric modified Caspase-9 polypeptide
- basal activity, in words [3]: no effect

B2: F319W: chimeric modified Caspase-9 polypeptide (protein, UniProt P55211 1-416, looked up, variant F319W)
chain: B1 chain with A319W
modifications: fused to FKBP12 F36V dimerization domain
notes: as for B1
- basal activity, in words [3]: lower basal activity

B3: T317A: chimeric modified Caspase-9 polypeptide (protein)
chain: VDGFGDVGALESLRGNADLAYILSMEPCGHCLIINNVNFCRESGLRTRTGSNIDCEKLRRRFSSLHFMVEVKGDLTAKKMVLALLELARQDHGALDCCVVVILSHGCQASHLQFPGAVYGTDGCPVSVEKIVNIFNGTSCPSLGGKPKLFFIQACGGEQKDHGFEVASTSPEDESPGSNPEPDAAPFQEGLRTFDQLDAISSLPTPSDIFVSYSTFPGFVSWRDPKSGSWYVETLDDIFEQWAHSEDLQSLLLRVANAVSVKGIYKQMPGCFNFLRKKLFFKTSASRA
- basal activity, in words [3]: lower basal activity; also recorded: reduce basal activity

B4: D330E: chimeric modified Caspase-9 polypeptide (protein)
chain: B3 chain with A185T, D198E
- basal activity, in words [3]: less basal activity than wild type Caspase-9
- CD19 mean fluorescence intensity of transduced PG13 cells, in words [4]: enhanced CD19 mean fluorescence intensity (MFI)
- viral titers, in words ([4]; upon HAT media treatment, HT1080 cells): higher viral titers

B5: S144A: chimeric modified Caspase-9 polypeptide (protein)
chain: B3 chain with S12A, A185T
- basal activity, in words [3]: lower basal activity

B6: D330S: chimeric modified Caspase-9 polypeptide (protein)
chain: B3 chain with A185T, D198S
- basal activity, in words [3]: less basal activity than wild type Caspase-9

B7: S196A: chimeric modified Caspase-9 polypeptide (protein)
chain: B3 chain with S64A, A185T
- basal activity, in words [3]: lower basal activity

B8: A316G: chimeric modified Caspase-9 polypeptide (protein)
chain: B3 chain with A184G, A185T
- basal activity, in words [3]: lower basal activity

B9: S144D: chimeric modified Caspase-9 polypeptide (protein)
chain: B3 chain with S12D, A185T
- basal activity, in words [3]: lower basal activity

B10: S183A: chimeric modified Caspase-9 polypeptide (protein)
chain: B3 chain with S51A, A185T
- basal activity, in words [3]: lower basal activity

B11: S196D: chimeric modified Caspase-9 polypeptide (protein)
chain: B3 chain with S64D, A185T
- basal activity, in words [3]: lower basal activity

B12: D330G: chimeric modified Caspase-9 polypeptide (protein)
chain: B3 chain with A185T, D198G
- basal activity, in words [3]: less basal activity than wild type Caspase-9

B13: D330V: chimeric modified Caspase-9 polypeptide (protein)
chain: B3 chain with A185T, D198V
- basal activity, in words [3]: less basal activity than wild type Caspase-9

B14: D330N: chimeric modified Caspase-9 polypeptide (protein)
chain: B3 chain with A185T, D198N
- basal activity, in words [3]: less basal activity than wild type Caspase-9
